Results reported in PMC6999906 (PLoS ONE, 2020).

Experiments:
[1] = target: Mtb ThyX (thymidylate synthase ThyX) (Mycobacterium tuberculosis, UniProt P9WG57); assay: […]; also NADPH oxidase assay (IC50 about […]); type: biochemical
[2] = test system: O=c1ccn([C@H]2C[C@H](O)[C@@H](COP(=O)(O)O)O2)c(=O)[nH]1; assay: purified protein; details: FAD
[3] = test system: NC(=O)C1=CN([C@@H]2O[C@H](COP(=O)(O)OP(=O)(O)OC[C@H]3O[C@@H](n4cnc5c(N)ncnc54)[C@H](OP(=O)(O)O)[C@@H]3O)[C@@H](O)[C@H]2O)C=CC1; assay: purified protein; details: FAD
[4] = test system: Nc1nc2c(c(=O)[nH]1)N1CN(c3ccc(C(=O)N[C@@H](CCC(=O)O)C(=O)O)cc3)C[C@H]1CN2; assay: purified protein; details: FAD

Mtb ThyX (thymidylate synthase ThyX), sequence (P9WG57 whole entry): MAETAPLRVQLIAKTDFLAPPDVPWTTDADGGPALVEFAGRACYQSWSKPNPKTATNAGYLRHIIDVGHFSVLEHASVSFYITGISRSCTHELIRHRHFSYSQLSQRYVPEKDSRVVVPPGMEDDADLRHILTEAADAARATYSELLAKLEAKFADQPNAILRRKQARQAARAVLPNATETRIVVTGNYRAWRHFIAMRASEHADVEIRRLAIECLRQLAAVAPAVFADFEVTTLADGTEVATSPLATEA

CC1=CC(=O)c2c(O)cccc2C1=O [plumbagin, 5-hydroxy-2-methyl-1,4-naphthoquinone]
Ki [1]: 8.21 µM

Mtb ThyX (thymidylate synthase ThyX) (Mycobacterium tuberculosis H37Rv)
Km [2]: 3.526 ± 0.68 µM | Vmax [2]: 0.00695 µmol/min/mg | Km [3]: 35.22 µM | Vmax [3]: 0.00323 µmol/min/mg | Km [4]: 6.467 µM | Vmax [4]: 0.00228 µmol/min/mg
